These results are taken from the supplement of paper PMC10567573.

± gives the standard deviation.

A short description of the data set: protein stability index of a GFP-peptide fusion (GPS, HEK-293T) (PSI 1-6); higher = more stable. Particulars: c terminus: a fixed tail appended.
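Also: 24-mer peptide tiles fused after GFP, lentivirally expressed, FACS-sorted into six equal bins by GFP/DsRed ratio, decoded by Illumina sequencing, PSI is the read-weighted mean bin number.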

LSSEMNTSTVNSAREELMESRMRI [LMNB1]: the protein stability index (treatment: DMSO) is 4.48 ± 0.29 and the protein stability index (treatment: MLN4924 1 uM, 8 h) was 4.27 ± 0.17.
For EDLQDGDVRMGGSFRGAFSNSEKA [NET1], the protein stability index turned out to be 4.98 ± 0.63 (treatment: DMSO) and 5.252 ± 0.051 (treatment: MLN4924 1 uM, 8 h).
As for SWVLSMLYGFLLTFGFITMTPQLF [CLPTM1], the protein stability index amounted to 3.21 ± 0.47 (treatment: DMSO) and 3.03 ± 0.16 (treatment: MLN4924 1 uM, 8 h).
For the sequence GEVLSYLELAQFHNAHQLAAWCLH [RHOBTB1], the protein stability index stood at 2.7 ± 0.81 (treatment: DMSO) and 2.35 ± 0.25 (treatment: MLN4924 1 uM, 8 h).
On the same counts, the results for FYSTSSGLANGLQLLCPWAPLSGP [VENTX] are 2.88 ± 0.4 and 2.54 ± 0.55.
In the case of GGMLNFMMHDQRTGPAWNVLMWTM [SOAT2], the protein stability index worked out at 2.49 ± 1.2 (treatment: DMSO) and 2.07 ± 0.73 (treatment: MLN4924 1 uM, 8 h).
In the case of VDFNTLKSIGSEPHEDHVFLVANF [MATN2], the protein stability index runs as follows: (treatment: DMSO) 2.06 ± 0.3; (treatment: MLN4924 1 uM, 8 h) 2.18 ± 0.18.
Take FAESLQCKVDCEANLTPNVGGYFV [P3H4]: the protein stability index runs as follows: (treatment: DMSO) 2.22 ± 0.9; (treatment: MLN4924 1 uM, 8 h) 2.42 ± 0.65.
As to SRVLQNGGDKLETMPLYLEDDIRP [SCD], the protein stability index stood at 4.66 ± 0.23 (treatment: DMSO) and 4.53 ± 0.21 (treatment: MLN4924 1 uM, 8 h).
Consider STHQEAENEKDRADQTVLTEDEKK [CHGB], for which the protein stability index worked out at 5.35 ± 0.48 (treatment: DMSO) and 5.83 ± 0.091 (treatment: MLN4924 1 uM, 8 h).
For the sequence YSAAALQEAMKRLRGAKAFRLPGL [FCHO1], the protein stability index is 2.3 ± 0.076 (treatment: DMSO) and 2.42 ± 0.2 (treatment: MLN4924 1 uM, 8 h).
For EKAHECTDCGKAFLKKSQLTEHKR [ZNF649] the same measures were 3.54 ± 0.29 and 3.81 ± 0.38.
Turning to DKVIMKLGKTNAKAVSEMRQKIWN [DYNC2LI1], the protein stability index (treatment: DMSO) stood at 2.31 ± 0.12 and the protein stability index (treatment: MLN4924 1 uM, 8 h) is 2.54 ± 0.32.
For CVPGQVFSPDGPSRFRKAYKPEQP [LOXL2] the same measures were 3.17 ± 0.19 and 3.33 ± 0.091.
As to KLILGMPTYGRSFTLASSSDTRVG [CHIT1], the protein stability index by setting is: (treatment: DMSO) 2.42 ± 0.36; (treatment: MLN4924 1 uM, 8 h) 2.46 ± 0.22.
In turn, PPENSDSGTGKKEKEKKNRKGKDK [EIF5] had a protein stability index (treatment: DMSO) of 5.58 ± 0.21 and a protein stability index (treatment: MLN4924 1 uM, 8 h) of 5.48 ± 0.28.
For GKGEARARLKRSQSFGVASASSIK [SMTNL2] the same measures were 4.6 ± 0.43 and 4.61 ± 0.38.
For the sequence LPEPSKRGPPHGWPKLCPCLRSGI [MYCL], the protein stability index is, setting by setting: (treatment: DMSO) 2.04 ± 0.64; (treatment: MLN4924 1 uM, 8 h) 2.85 ± 0.054.
Regarding RDYAPPSRGYAYRDNGHSNRDEHS [RBMY1A1], the protein stability index (treatment: DMSO) worked out at 4.59 ± 0.11 and the protein stability index (treatment: MLN4924 1 uM, 8 h) was 4.57 ± 0.36.
Regarding DPKITCKQECLITTFQDVYFVSES [TPH1], the protein stability index is 2.5 ± 0.36 (treatment: DMSO) and 2.14 ± 0.49 (treatment: MLN4924 1 uM, 8 h).
For LPKISDPNFVKDLEEDLYELFKKD [PI4K2A] the same measures were 3.72 ± 0.24 and 3.88 ± 0.31.
As to EVAEQLELERIGPQHQAGSDSLLT [CNOT7], the protein stability index (treatment: DMSO) worked out at 4.9 ± 0.14 and the protein stability index (treatment: MLN4924 1 uM, 8 h) is 4.85 ± 0.15.
FPKNRVLEGVIDRYQQSKAAALKC [TRIM9] came in with a protein stability index (treatment: DMSO) of 2.78 ± 0.14 and a protein stability index (treatment: MLN4924 1 uM, 8 h) of 3.2 ± 0.19.
Take TLLHFSAARGKERCVRVFLEHGAD [ASB7]: the protein stability index worked out at 2 ± 0.2 (treatment: DMSO) and 2.21 ± 0.3 (treatment: MLN4924 1 uM, 8 h).
NGTMTIDWNEWRDYHLLHPVENIP [SLC25A25]: the protein stability index stood at 3.18 ± 0.28 (treatment: DMSO) and 3.07 ± 0.19 (treatment: MLN4924 1 uM, 8 h).
On the same counts, the results for EIPENYNSAMPFKILYDDGKMVEE [PTPRD] are 4.55 ± 0.2 and 4.79 ± 0.071.
On the same counts, the results for CLSCRLFYFKLTDLYKKVKKNSSP [CRY1] are 2.42 ± 0.11 and 2.08 ± 0.44.
For KLMKILQPQDVDLALDSGASLLHL [RIPK4], the protein stability index was found to be 2.11 ± 0.12 (treatment: DMSO) and 2.52 ± 0.21 (treatment: MLN4924 1 uM, 8 h).
In the case of ALSTMGTLICRKLGGVKKSATLRS [TPD52L3], the protein stability index was 2.6 ± 0.2 (treatment: DMSO) and 2.67 ± 0.31 (treatment: MLN4924 1 uM, 8 h).
Consider VVNKYQINGLQAWLLTHLLWFANA [DHCR7], for which the protein stability index runs as follows: (treatment: DMSO) 2.9 ± 0.28; (treatment: MLN4924 1 uM, 8 h) 2.75 ± 0.34.
Take FLIPMLEMVPEKRASAGECLRHPW [SRPK2]: the protein stability index by setting is: (treatment: DMSO) 2.33 ± 0.26; (treatment: MLN4924 1 uM, 8 h) 2.2 ± 0.12.
As to LFTDLFDRKGYMFDYEYDWIGKQL [CSNK1G3], the protein stability index (treatment: DMSO) amounted to 2.24 ± 0.32 and the protein stability index (treatment: MLN4924 1 uM, 8 h) was 2.15 ± 0.3.
As to SSWPFSIQDVVQPLTLQVQRPLVS [AUP1], the protein stability index runs as follows: (treatment: DMSO) 2.77 ± 0.32; (treatment: MLN4924 1 uM, 8 h) 3.03 ± 0.2.
Consider EMGGSEGIVESIQIMKEGKATASE [NETO1], for which the protein stability index by setting is: (treatment: DMSO) 5.58 ± 0.21; (treatment: MLN4924 1 uM, 8 h) 5.611 ± 0.038.
For the sequence ANTIRGGGCYFGPDVTQQLLQKYN [PPEF2], the protein stability index (treatment: DMSO) was 2.44 ± 0.35 and the protein stability index (treatment: MLN4924 1 uM, 8 h) worked out at 2.59 ± 0.41.
Take APLGYKEPERQVQHEESTEGEADH [UFD1]: the protein stability index (treatment: DMSO) is 5.55 ± 0.22 and the protein stability index (treatment: MLN4924 1 uM, 8 h) stood at 5.5 ± 0.3.
